Results reported in patent US12383631B2, “Immune antigen specific IL-18 immunocytokines and uses thereof” (Bright Peak Therapeutics AG, priority 2022, dated 2025).

T1: human IL-18BP (Homo sapiens, UniProt O95998)
T1 sequence (O95998 31-194): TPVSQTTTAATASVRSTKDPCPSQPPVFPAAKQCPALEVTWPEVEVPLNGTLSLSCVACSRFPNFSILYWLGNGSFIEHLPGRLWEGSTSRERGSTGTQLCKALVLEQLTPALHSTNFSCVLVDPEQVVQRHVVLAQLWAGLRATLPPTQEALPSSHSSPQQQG

T2: human IL-18 binding protein isoform a (IL-18BPa) (Homo sapiens, UniProt O95998)
T2 sequence (O95998 31-194): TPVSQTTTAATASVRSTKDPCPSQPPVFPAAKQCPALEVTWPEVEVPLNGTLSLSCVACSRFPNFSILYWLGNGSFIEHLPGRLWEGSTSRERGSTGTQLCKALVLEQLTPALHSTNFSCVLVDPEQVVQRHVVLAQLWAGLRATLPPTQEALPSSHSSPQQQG


These molecules were tested against T1, human IL-18BP (assay: IL-18BP binding AlphaLISA assay (Example 4 / 17B)). Settings: IL-18 binding protein AlphaLISA.
Protocol: A human IL-18BP AlphaLISA Assay Kit is used to determine the binding affinity of each immunocytokine and IL-18 variant for IL-18BP, which detected the presence of free form IL-18BP.
Sixteen three-fold serial dilutions of IL-18 analytes are prepared in aMEM medium supplemented with 20% FCS, Glutamax, and 25 μM β-mercaptoethanol in the presence of 5 ng/mL of His-tagged human IL-18BP. Final IL-18 analytes concentration range from 2778 nM to 0.2 pM.
After 1 hr incubation at room temperature, free IL-18BP levels are measured using a […]. In a 384 well OPTIplate, 5 μL of 5× Anti-IL-18BP acceptor beads are added to 7.5 μL of an IL-18/IL-18BP mix. After 30 min incubation at room temperature with shaking, 5 μL of biotinylated Anti-IL-18BP antibodies are added to each well. The plate is incubated further for 1 hr at room temperature. Under subdued light, 12.5 μL of 2× streptavidin (SA) donor beads are pipetted into each well, and the wells are incubated with shaking for an additional 30 min at room temperature. The AlphaLisa signal is then measured on an Enspire plate reader with 680 and 615 nm as excitation and emission wavelengths, respectively. The dissociation constant (KD) is calculated based on a variable slope, four parameter analysis using GraphPad PRISM software.
17B—IL-18 BP AlphaLISA assay—An IL-18 binding protein AlphaLISA experiment substantially as described in Example 4 was performed on IL-18 polypeptide which can be incorporated into immunocytokine compositions as provided herein to assess ability to bind to IL-18BP.

Row | Molecule | Kd [nM]
1 | C177: IL-18 polypeptide: E6K, V11I, C38A, I49R, K53A, T63A, C76A, C127A (protein) YFGKLKSKLSIIRNLNDQVLFIDQGNRPLFEDMTDSDARDNAPRTIFIRSMYADSQPRGMAVAISVKCEKISTLSAENKIISFKEMNPPDNIKDTKSDIIFFQRSVPGHDNKMQFESSSYEGYFLAAEKERDLFKLILKKEDELGDRSIMFTVQNED | > 2800
2 | C181: IL-18 polypeptide: E6K, V11I, C38A, K53A, T63A, C76A, C127A, V153E (protein) YFGKLKSKLSIIRNLNDQVLFIDQGNRPLFEDMTDSDARDNAPRTIFIISMYADSQPRGMAVAISVKCEKISTLSAENKIISFKEMNPPDNIKDTKSDIIFFQRSVPGHDNKMQFESSSYEGYFLAAEKERDLFKLILKKEDELGDRSIMFTEQNED | > 2800
3 | C178: IL-18 polypeptide: E6K, V11I, C38A, K53A, T63A, C76A, Q103R, C127A (protein) YFGKLKSKLSIIRNLNDQVLFIDQGNRPLFEDMTDSDARDNAPRTIFIISMYADSQPRGMAVAISVKCEKISTLSAENKIISFKEMNPPDNIKDTKSDIIFFRRSVPGHDNKMQFESSSYEGYFLAAEKERDLFKLILKKEDELGDRSIMFTVQNED | > 2800
4 | SEQ ID NO: 69: IL-18 polypeptide: E6K, V11I, C38A, M51G, K53A, T63A, C76A, C127A (protein) YFGKLKSKLSIIRNLNDQVLFIDQGNRPLFEDMTDSDARDNAPRTIFIISGYADSQPRGMAVAISVKCEKISTLSAENKIISFKEMNPPDNIKDTKSDIIFFQRSVPGHDNKMQFESSSYEGYFLAAEKERDLFKLILKKEDELGDRSIMFTVQNED | > 2800
5 | C179: IL-18 polypeptide: E6K, K8E, V11I, C38A, K53A, T63A, C76A, Q103R, C127A (protein) YFGKLKSELSIIRNLNDQVLFIDQGNRPLFEDMTDSDARDNAPRTIFIISMYADSQPRGMAVAISVKCEKISTLSAENKIISFKEMNPPDNIKDTKSDIIFFRRSVPGHDNKMQFESSSYEGYFLAAEKERDLFKLILKKEDELGDRSIMFTVQNED | > 2800
6 | C182: IL-18 polypeptide: E6K, V11I, C38A, K53A, T63A, C76A, C127A, V153Y (protein) YFGKLKSKLSIIRNLNDQVLFIDQGNRPLFEDMTDSDARDNAPRTIFIISMYADSQPRGMAVAISVKCEKISTLSAENKIISFKEMNPPDNIKDTKSDIIFFQRSVPGHDNKMQFESSSYEGYFLAAEKERDLFKLILKKEDELGDRSIMFTYQNED | > 2800
7 | SEQ ID NO: 71: IL-18 polypeptide: N-terminal G, E6K, V11I, C38A, K53A, T63A, C76A, C127A (protein, N-terminal G, IL-18 polypeptide: N-terminal G, E6K, V11I, C38A, K53A, T63A, C76A, C127A) GYFGKLKSKLSIIRNLNDQVLFIDQGNRPLFEDMTDSDARDNAPRTIFIISMYADSQPRGMAVAISVKCEKISTLSAENKIISFKEMNPPDNIKDTKSDIIFFQRSVPGHDNKMQFESSSYEGYFLAAEKERDLFKLILKKEDELGDRSIMFTVQNED | > 2800
8 | SEQ ID NO: 70: IL-18 polypeptide: N-terminal G, E6K, V11I, C38A, M51G, K53A, T63A, C76A, C127A (protein, N-terminal G, IL-18 polypeptide: N-terminal G, E6K, V11I, C38A, M51G, K53A, T63A, C76A, C127A) GYFGKLKSKLSIIRNLNDQVLFIDQGNRPLFEDMTDSDARDNAPRTIFIISGYADSQPRGMAVAISVKCEKISTLSAENKIISFKEMNPPDNIKDTKSDIIFFQRSVPGHDNKMQFESSSYEGYFLAAEKERDLFKLILKKEDELGDRSIMFTVQNED | > 2800
9 | SEQ ID NO: 72: IL-18 polypeptide: N-terminal 4xG, E6K, V11I, C38A, K53A, T63A, C76A, C127A (protein, N-terminal 4xG, IL-18 polypeptide: N-terminal 4xG, E6K, V11I, C38A, K53A, T63A, C76A, C127A) GGGGYFGKLKSKLSIIRNLNDQVLFIDQGNRPLFEDMTDSDARDNAPRTIFIISMYADSQPRGMAVAISVKCEKISTLSAENKIISFKEMNPPDNIKDTKSDIIFFQRSVPGHDNKMQFESSSYEGYFLAAEKERDLFKLILKKEDELGDRSIMFTVQNED | > 2800

The molecules below were run against T2, human IL-18 binding protein isoform a (IL-18BPa) (assay: IL-18 Binding Protein inhibition cellular assay in NK-92 cells (Example 4 / 17C)). Settings: inhibition by IL-18BP of IFNγ stimulation in NK92 cells.
Format: cell-based
Protocol: The NK cell line NK-92 derived from a patient with lymphoma (ATCC® CRL-2407™) is cultured in aMEM medium supplemented with 20% FCS-Glutamax, 25 μM β-mercaptoethanol, and 100 IU/mL of recombinant human IL-2.
On the day of experiment, cells are harvested and washed with aMEM medium without IL-2 and containing 1 ng/mL of recombinant human IL-12. After counting, the cells are seeded at 100,000 cells/well in a 384 well titer plate and incubated at 37° C./5% CO2. Sixteen 2-fold serial dilutions of Fc-fused human IL-18 binding protein isoform a (IL-18BPa) are prepared in aMEM medium. 1 ng/mL of IL-12 containing 2 nM of each modified IL-18 polypeptide variant is added to the NK-92 cells. The final IL-18 analyte concentration is 1 nM, and the final IL-18BPa concentration ranged from 566 nM to 17 pM.
After incubating the cells for 16-20 hr at 37° C./5% CO2, 5 μL of the supernatant is carefully transferred to a 384 microwell OptiPlate. IFNγ levels are measured using a human IFNγ AlphaLISA Assay Kit. Briefly, 10 μL of 2.5× AlphaLISA anti-IFNγ acceptor beads and biotinylated antibody anti-IFNγ mix are added to 5 μL of NK-92 supernatants. The mixtures are incubated for 1 hr at room temperature with shaking. Under subdued light, 2.5 μL of 2×SA donor beads are pipetted in each well and incubated for 30 min at room temperature with shaking. AlphaLISA signals are then measured on an EnSpire™ plate reader using 680 nm and 615 nm as excitation and emission wavelengths, respectively. Half maximal inhibitory concentrations (IC50) are calculated based on a variable slope and four parameter analysis using GraphPad PRISM software.
17C—IFNγ Stimulation and IL-18BP Inhibition Assay—The experiments described in Example 4 for determination of IFNg stimulation in NK92 cells (and inhibition by IL-18 BP) were performed substantially as described on modified IL-18 polypeptides in order to assess their activities and their suitability for incorporation into immunocytokine compositions.

Row | Molecule | IC50 [nM]
10 | C168: IL-18 polypeptide: V11I, C38A, C76A, S105K, C127A (protein) YFGKLESKLSIIRNLNDQVLFIDQGNRPLFEDMTDSDARDNAPRTIFIISMYKDSQPRGMAVTISVKCEKISTLSAENKIISFKEMNPPDNIKDTKSDIIFFQRKVPGHDNKMQFESSSYEGYFLAAEKERDLFKLILKKEDELGDRSIMFTVQNED | 0.176
11 | C165: IL-18 polypeptide: V11I, C38A, S55R, C76A, C127A (protein) YFGKLESKLSIIRNLNDQVLFIDQGNRPLFEDMTDSDARDNAPRTIFIISMYKDRQPRGMAVTISVKCEKISTLSAENKIISFKEMNPPDNIKDTKSDIIFFQRSVPGHDNKMQFESSSYEGYFLAAEKERDLFKLILKKEDELGDRSIMFTVQNED | 0.885
12 | C167: IL-18 polypeptide: V11I, C38A, C76A, S105I, C127A (protein) YFGKLESKLSIIRNLNDQVLFIDQGNRPLFEDMTDSDARDNAPRTIFIISMYKDSQPRGMAVTISVKCEKISTLSAENKIISFKEMNPPDNIKDTKSDIIFFQRIVPGHDNKMQFESSSYEGYFLAAEKERDLFKLILKKEDELGDRSIMFTVQNED | 0.809
13 | C166: IL-18 polypeptide: V11I, C38A, S55T, C76A, C127A (protein) YFGKLESKLSIIRNLNDQVLFIDQGNRPLFEDMTDSDARDNAPRTIFIISMYKDTQPRGMAVTISVKCEKISTLSAENKIISFKEMNPPDNIKDTKSDIIFFQRSVPGHDNKMQFESSSYEGYFLAAEKERDLFKLILKKEDELGDRSIMFTVQNED | 0.44
14 | C164: IL-18 polypeptide: V11I, C38A, S55H, C76A, C127A (protein) YFGKLESKLSIIRNLNDQVLFIDQGNRPLFEDMTDSDARDNAPRTIFIISMYKDHQPRGMAVTISVKCEKISTLSAENKIISFKEMNPPDNIKDTKSDIIFFQRSVPGHDNKMQFESSSYEGYFLAAEKERDLFKLILKKEDELGDRSIMFTVQNED | 0.456
15 | C162: IL-18 polypeptide: K8E, V11I, C38A, C76A, Q103R, C127A (protein) YFGKLESELSIIRNLNDQVLFIDQGNRPLFEDMTDSDARDNAPRTIFIISMYKDSQPRGMAVTISVKCEKISTLSAENKIISFKEMNPPDNIKDTKSDIIFFRRSVPGHDNKMQFESSSYEGYFLAAEKERDLFKLILKKEDELGDRSIMFTVQNED | 7.29
16 | C163: IL-18 polypeptide: V11I, C38A, C76A, Q103K, C127A (protein) YFGKLESKLSIIRNLNDQVLFIDQGNRPLFEDMTDSDARDNAPRTIFIISMYKDSQPRGMAVTISVKCEKISTLSAENKIISFKEMNPPDNIKDTKSDIIFFKRSVPGHDNKMQFESSSYEGYFLAAEKERDLFKLILKKEDELGDRSIMFTVQNED | 0.823
